Ends that are not written are not given here. * marks the point of attachment. Biotin = O=C1N[C@H]2[C@H](CS[C@H]2CCCCC(=O)*)N1
Legend:
Assay in all cases: labelled AK1967 on biotinylated peptide on avidin plate, chemiluminescence
[1] = molecular target: T1, epitope mapping peptide #1 (N-terminal biotin)
T1 peptide: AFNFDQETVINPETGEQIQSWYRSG
Description: (§1) These peptides include the sequence of the full immunization peptide (SEQ ID No. 2) or fragments thereof, with stepwise removal of one amino acid from either C- or N-terminus (see table 5 for a complete list of peptides).
(§2) High binding 96 well plates were coated with 2 µg Avidin per well (Greiner Bio-One international AG, Austria) in coupling buffer (500 mM Tris-HCl, pH 7.8, 100 mM NaCl). Afterwards plate were washed and filled with specific solutions of biotinylated peptides (10 ng/ well; buffer – 1xPBS with 0.5% BSA)
(§3) The plates were filled with 200 µl of labeled and diluted detection antibody (tracer) and incubated for 4 h at room temperature. Unbound tracer was removed by washing 4 times with 350 µl washing solution (20 mM PBS, pH 7.4, 0.1 % Triton X-100). Well-bound chemiluminescence was measured by using the Centro LB 960 luminometer (Berthold Technologies GmbH & Co. KG).

[2] = molecular target: T2, epitope mapping peptide #2
T2 peptide: Biotin-AFNFDQETVINPETGEQIQ
Description: as §1, §2, §3

[3] = molecular target: T3, epitope mapping peptide #3
T3 peptide: Biotin-AFNFDQETVINPETGEQI
Description: as §1, §2, §3

[4] = molecular target: T4, epitope mapping peptide #4
T4 peptide: Biotin-AFNFDQETVINPETGEQ
Description: as §1, §2, §3

[5] = molecular target: T5, epitope mapping peptide #5
T5 peptide: Biotin-AFNFDQETVINPETGE
Description: as §1, §2, §3

[6] = molecular target: T6, epitope mapping peptide #6
T6 peptide: Biotin-AFNFDQETVINPETG
Description: as §1, §2, §3

[7] = molecular target: T7, epitope mapping peptide #8
T7 peptide: Biotin-AFNFDQETVINPE
Description: as §1, §2, §3

[8] = molecular target: T8, epitope mapping peptide #9
T8 peptide: Biotin-AFNFDQETVINP
Description: as §1, §2, §3

[9] = molecular target: T9, epitope mapping peptide #10
T9 peptide: Biotin-AFNFDQETVIN
Description: as §1, §2, §3

[10] = molecular target: T10, epitope mapping peptide #11
T10 construct: final K stands where DPP3 has R
T10 peptide: ETGEQIQSWYK(Biotin)
Description: as §1, §2, §3

[11] = molecular target: T11, epitope mapping peptide #12
T11 construct: final K stands where DPP3 has R
T11 peptide: PETGEQIQSWYK(Biotin)
Description: as §1, §2, §3

[12] = molecular target: T12, epitope mapping peptide #13
T12 construct: final K stands where DPP3 has R
T12 peptide: NPETGEQIQSWYK(Biotin)
Description: as §1, §2, §3

[13] = molecular target: T13, epitope mapping peptide #14
T13 construct: final K stands where DPP3 has R
T13 peptide: INPETGEQIQSWYK(Biotin)
Description: as §1, §2, §3

[14] = molecular target: T14, epitope mapping peptide #15
T14 construct: final K stands where DPP3 has R
T14 peptide: VINPETGEQIQSWYK(Biotin)
Description: as §1, §2, §3

[15] = molecular target: T15, epitope mapping peptide #16
T15 construct: final K stands where DPP3 has R
T15 peptide: TVINPETGEQIQSWYK(Biotin)
Description: as §1, §2, §3

[16] = molecular target: T16, epitope mapping peptide #17
T16 construct: final K stands where DPP3 has R
T16 peptide: ETVINPETGEQIQSWYK(Biotin)
Description: as §1, §2, §3

B1: murine monoclonal anti-DPP3 antibody AK1967 (clone 1967) (antibody, V domains shown)
VH: QVTLKESGPGILQPSQTLSLTCSFSGFSLSTSGMSVGWIRQPSGKGLEWLAHIWWNDNKSYNPALKSRLTISRDTSNNQVFLKIASVVTADTGTYFCARNYSYDYWGQGTTLTVSS
VL: DVVVTQTPLSLSVSLGDPASISCRSSRSLVHSIGSTYLHWYLQKPGQSPKLLIYKVSNRFSGVPDRFSGSGSGTDFTLKISRVEAEDLGVYFCSQSTHVPWTFGGGTKLEIK
notes: Acridinium-labelled in the plate assays
Q: What does the source list for B1?
A: binding result [1]: binds; binding result [2]: binds; binding result [3]: binds; binding result [4]: binds; binding result [5]: binds; binding result [6]: binds; binding result [7]: no binding; binding result [8]: no binding; binding result [9]: no binding; binding result [10]: no binding; binding result [11]: no binding; binding result [12]: no binding; binding result [13]: binds; binding result [14]: binds; binding result [15]: binds; binding result [16]: binds

— US20230295344A1 (published 2023)
